Measurements published in patent JP2021530247A.

Assays:
[1] = target: 10ng/mLのタンパク質サンプル (rBcl-2; R&D Systems or in-house, not stated) (UniProt P10415); assay: sandwich ELISA with the commercial reagents (taken as Bcl-2/100 capture, 4D7-biotin detector), 10 ng/mL protein
Bcl-2を発現しているライセート = Bcl-2を発現しているライセート (UniProt P10415); assay: sandwich ELISA with the commercial reagents (taken as Bcl-2/100 capture, 4D7-biotin detector), lysate

- OD [1]: 0.67 OD
- OD (Bcl-2を発現しているライセート): 0.24 OD
Substance: mAb Bcl-2/100 (antibody)
